Columns and labels:
talin-R4 (1654-1848) = talin-R4 (1654-1848) (UniProt P26039); assay: SPR
talin-RM (1654-2344) = talin-RM (1654-2344) (UniProt P26039); assay: SPR
talin-R6-R8 (1984-2344) = talin-R6-R8 (1984-2344) (UniProt P26039); assay: SPR
[1] = target: PIPKIγ peptide (Mus musculus) (UniProt O70161); settings: cited from earlier work
talin-H = talin-H (Mus musculus, UniProt P26039); assay: SPR, lipid immobilised on biotin chip, talin-H injected; type: binding; settings: labelled compound; 10 mM Hepes, pH 7.4, 37 °C
Chain of talin-H (P26039 1-433): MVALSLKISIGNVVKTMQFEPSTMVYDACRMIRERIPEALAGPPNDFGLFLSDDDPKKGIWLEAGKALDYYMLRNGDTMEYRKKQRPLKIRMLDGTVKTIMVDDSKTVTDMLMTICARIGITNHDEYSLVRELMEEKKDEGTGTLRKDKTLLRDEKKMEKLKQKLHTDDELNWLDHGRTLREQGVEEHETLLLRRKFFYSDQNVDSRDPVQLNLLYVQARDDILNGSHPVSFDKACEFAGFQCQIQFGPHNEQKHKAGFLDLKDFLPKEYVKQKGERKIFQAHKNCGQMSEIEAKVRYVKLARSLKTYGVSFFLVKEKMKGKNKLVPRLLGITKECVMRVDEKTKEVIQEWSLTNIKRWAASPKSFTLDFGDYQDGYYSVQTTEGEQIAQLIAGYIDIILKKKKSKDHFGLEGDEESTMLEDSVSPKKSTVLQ

Chain of talin-RM (1654-2344) (P26039 1654-2344): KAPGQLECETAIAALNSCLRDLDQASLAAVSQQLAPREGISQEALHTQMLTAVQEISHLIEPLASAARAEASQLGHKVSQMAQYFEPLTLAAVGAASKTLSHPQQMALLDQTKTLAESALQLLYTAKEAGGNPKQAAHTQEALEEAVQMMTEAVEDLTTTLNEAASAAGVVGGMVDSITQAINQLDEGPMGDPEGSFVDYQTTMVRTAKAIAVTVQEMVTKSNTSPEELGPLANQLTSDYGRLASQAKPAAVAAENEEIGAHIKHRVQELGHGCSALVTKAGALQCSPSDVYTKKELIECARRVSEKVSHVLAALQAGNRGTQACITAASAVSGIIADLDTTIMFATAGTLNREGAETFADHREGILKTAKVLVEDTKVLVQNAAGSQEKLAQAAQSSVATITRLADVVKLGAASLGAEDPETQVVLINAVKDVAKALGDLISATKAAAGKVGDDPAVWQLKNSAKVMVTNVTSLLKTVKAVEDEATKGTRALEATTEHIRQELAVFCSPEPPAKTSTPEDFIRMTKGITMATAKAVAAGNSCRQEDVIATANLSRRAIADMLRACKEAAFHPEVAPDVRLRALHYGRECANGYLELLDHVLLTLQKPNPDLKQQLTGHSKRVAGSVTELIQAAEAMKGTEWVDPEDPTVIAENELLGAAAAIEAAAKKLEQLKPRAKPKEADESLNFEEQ
Chain of PIPKIγ peptide (Mus musculus) (O70161 whole entry): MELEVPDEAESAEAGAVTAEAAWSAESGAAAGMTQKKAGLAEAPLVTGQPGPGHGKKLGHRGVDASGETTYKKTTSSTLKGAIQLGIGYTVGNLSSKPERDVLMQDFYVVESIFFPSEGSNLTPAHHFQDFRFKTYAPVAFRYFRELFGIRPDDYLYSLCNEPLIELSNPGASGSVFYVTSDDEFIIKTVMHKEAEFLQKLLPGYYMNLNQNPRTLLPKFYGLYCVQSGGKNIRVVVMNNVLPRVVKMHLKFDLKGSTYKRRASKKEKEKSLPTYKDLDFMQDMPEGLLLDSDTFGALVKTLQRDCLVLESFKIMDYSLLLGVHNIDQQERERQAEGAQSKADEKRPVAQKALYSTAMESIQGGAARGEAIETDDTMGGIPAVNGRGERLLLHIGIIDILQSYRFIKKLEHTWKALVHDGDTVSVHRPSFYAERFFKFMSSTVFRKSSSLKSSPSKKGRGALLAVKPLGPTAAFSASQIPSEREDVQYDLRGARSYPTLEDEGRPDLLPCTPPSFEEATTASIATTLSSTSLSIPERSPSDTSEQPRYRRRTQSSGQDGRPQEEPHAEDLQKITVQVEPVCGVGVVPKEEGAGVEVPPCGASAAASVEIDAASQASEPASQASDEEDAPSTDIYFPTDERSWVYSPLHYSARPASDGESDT
Chain of talin-PTB PTB (P26039 309-405): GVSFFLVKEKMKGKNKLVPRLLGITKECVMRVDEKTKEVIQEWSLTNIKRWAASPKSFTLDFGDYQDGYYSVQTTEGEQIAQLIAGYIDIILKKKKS
Chain of talin-R6-R8 (1984-2344) (P26039 1984-2344): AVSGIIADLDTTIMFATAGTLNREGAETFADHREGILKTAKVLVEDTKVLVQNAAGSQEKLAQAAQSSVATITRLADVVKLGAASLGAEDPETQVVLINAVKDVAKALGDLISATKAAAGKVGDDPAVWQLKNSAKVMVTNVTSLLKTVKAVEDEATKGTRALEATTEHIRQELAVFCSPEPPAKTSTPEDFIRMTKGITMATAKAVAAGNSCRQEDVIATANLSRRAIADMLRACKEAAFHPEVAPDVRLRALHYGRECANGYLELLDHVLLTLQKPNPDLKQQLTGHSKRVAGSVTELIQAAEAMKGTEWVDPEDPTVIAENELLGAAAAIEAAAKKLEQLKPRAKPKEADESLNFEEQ
Chain of talin-R4 (1654-1848) (P26039 1654-1848): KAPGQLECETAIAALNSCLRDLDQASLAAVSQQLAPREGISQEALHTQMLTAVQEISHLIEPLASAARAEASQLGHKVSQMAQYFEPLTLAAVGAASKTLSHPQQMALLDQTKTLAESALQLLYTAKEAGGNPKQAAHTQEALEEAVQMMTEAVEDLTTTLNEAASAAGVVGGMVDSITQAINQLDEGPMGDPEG

Row | Substance | Kd (talin-RM (1654-2344)) | further results
1 | talin-PTB PTB (from UniProt P26039) |  | Kd [1]: 0.27 µM
2 | talin-PTB S365D (from UniProt P26039 306-405) (domain or fragment) | 1660 µM | 
3 | talin-PTB W359A (from UniProt P26039 306-405) (domain or fragment) | 0.529 µM | 
4 | biotinylated C6-PIP2 |  | Kd (talin-H): ~0.0892 µM

Continued by falling Kd (talin-RM (1654-2344)), values first:

Row | Kd (talin-RM (1654-2344)) | Substance | further results
5 | 625 µM | talin-PTB S379R (from UniProt P26039 306-405) (domain or fragment) | 
6 | 314 µM | talin-PTB Q381V (from UniProt P26039 306-405) (domain or fragment) | 
7 | 80.9 µM | talin-PTB M319A (from UniProt P26039 306-405) (domain or fragment) | 
8 | 0.667 µM | talin-PTB L325R (from UniProt P26039 306-405) (domain or fragment) | 
9 | 0.577 µM | WT talin-PTB (talin-F3/PTB, 306-405) (from UniProt P26039 306-405) (domain or fragment) | Kd (talin-R4 (1654-1848)): 3.6 µM; Kd (talin-R6-R8 (1984-2344)): 78 µM

Reference: publication PMC2522368 (Molecular cell, 2008)
